Measurements reported in US5811393A (The Childrens Medical Center Corp., priority 1993, dated 1998).

Legend:
EGF receptors on BASMC = assay: Competitive [125I]EGF binding to bovine aortic smooth muscle cells
Method: Competitive binding assays were used to measure this interaction and were performed as follows.

[1] = Heparin affinity chromatography (NaCl elution from immobilized heparin); format: binding; conditions: partially purified sample, 0.2-2M NaCl gradient, pH 7.5
Source text: Heparin affinity chromatography has been used extensively for purifying and characterizing a variety of these growth factors. Acidic FGF (aFGF) and basic FGF (bFGF) bind to immobilized heparin columns and are eluted with 1.0M to 1.2M NaCl and 1.5M to 1.8M NaCl, respectively (Folkman and Klagsbrun, 235 Science 442, 1987; Lobb et al., 261 J. Biol. Chem. 1924, 1986). Several growth factors which are structurally homologous to aFGF and bFGF also have an affinity for heparin (see, for example, Rubin et al., 86 Proc. Natl. Acad. Sci. USA 802, 1989). PDGF binds to immobilized heparin, but with relatively low affinity, being eluted with only 0.5M NaCl. […] Lobb et al. (261 J. Biol. Chem. 1924, 1986) report the partial purification by heparin affinity of two classes of growth factors mitogenic for endothelial cells. Gospodarowicz et al. (81 Proc. Natl. Acad. Sci. USA 6963, 1984) report the use of heparin affinity in the purification of bovine brain and pituitary fibroblast growth factors. Shing et al. (29 J. Cell Biochem. 275, 1985) report a chondrosarcoma-derived growth factor purified by heparin-Sepharose affinity chromatography and Bio Rex 70 cation exchange chromatography. […]
HB-EHM was purified as follows. Growth factor activity was monitored during the purification procedures using BALB/c mouse 3T3 cells as target cells and measuring [^3 H]-thymidine incorporation into DNA. […]

B1: HB-EHM: novel heparin binding growth factor with EGF-homologous segment, purified from U-937 lymphoma cell conditioned medium, about 22 kD (protein)
chain: RVTLSSKPQALATPNKEEHGKRKKKGKGLGKKRDPCLRKYKDFCIHGECKYVKELRAPSCICHPGYHGERCHGLS
modifications: O-linked glycosylation (suggested by O-glycanase treatment; the threonines predicted at positions 2 and 12 of the form first sequenced were not detected in protein sequencing)
- 50% inhibition of [125I]EGF binding (EGF receptors on BASMC; BASMC, 6-well plates): 63 pg/mL
- binding to EGF receptors on SMC (EGF receptors on BASMC; purified HB-EHM): found to bind
- NaCl concentration eluting from the TSK-heparin column [1]: 1 to 1.2 M
